Marks after values point to notes of the source that are not given here.

The source of these data is US20110262525A1, “METHODS OF TREATMENT” (SCHERING CORPORATION, priority 2006, published 2011).

The subject of experiment [1] is ALL-19 xenograft (ALL B-precursor). Kind of experiment: PPTP in vivo leukemia xenograft ALL-19. The note with it: ALL-19 (ALL B-precursor) xenograft; 0.5 mg per mouse ip twice weekly for four weeks. How it is done: (§1) The PPTP includes a molecularly characterized in vitro panel of cell lines (n=27) and in vivo panel of xenografts (n=61) representing most of the common types of childhood solid tumors and childhood ALL (acute lymphoblastic leukemia). LCF/HCA anti-IGF1R antibody was tested against the PPTP in vitro panel at concentrations ranging from 0.01 nM to 100 nM; and was tested against the PPTP in vivo panel at a dose of 0.5 mg per mouse administered twice weekly for four weeks via intraperitoneal injection. […]
(§2) In vivo acute lymphoblastic leukemia testing: For each xenograft line, 8 mice were inoculated with 3-5×10^6 mononuclear cells purified from the spleens of secondary recipient mice. Engraftment was monitored weekly by flow cytometry, and treatment was initiated when the proportion of human CD45+ cells in the peripheral blood reached 1%. The proportion of human CD45+ cells in the peripheral blood was monitored weekly throughout the course of treatment. […]
(§3) Median Group Response: Each individual mouse in each treatment group was assigned a response score (see Tables above) and a median score for the treatment group was calculated and then each treatment group was assigned an overall response according to the table below. […]

In experiment [2] the test system is D645 xenograft (Glioblastoma). Description: PPTP in vivo xenograft D645. Further details: key to EFS activity notation (high, intermediate, indeterminate): high (!); intermediate (#); indeterminate (^). The protocol:
(§4) The PPTP includes a molecularly characterized in vitro panel of cell lines (n=27) and in vivo panel of xenografts (n=61) representing most of the common types of childhood solid tumors and childhood ALL (acute lymphoblastic leukemia). LCF/HCA anti-IGF1R antibody was tested against the PPTP in vitro panel at concentrations ranging from 0.01 nM to 100 nM; and was tested against the PPTP in vivo panel at a dose of 0.5 mg per mouse administered twice weekly for four weeks via intraperitoneal injection. Three measures of antitumor activity were used: 1) response criteria modeled after the clinical setting; 2) treated-to-control (T/C) tumor volume at day 21; and 3) a time to event (4-fold increase in tumor volume) measure based on the median EFS of treated and control lines (intermediate activity required EFS (event-free survival) T/C>2, and high activity additionally required a net reduction in median tumor volume at the end of the experiment).
(§5) Stage 1 testing involved testing an agent across the entire PPTP panel of childhood cancer xenograft lines at its maximum tolerated dose (MTD) or at a dose selected based on PK/PD (pharmacokinetic/pharmacodynamic) studies using adult preclinical models.
(§6) In vivo solid tumor testing: For each xenograft line, 10 mice bearing subcutaneous (SC) tumors initiated treatment when the tumors were between 0.2-0.5 cm^3 in volume. Two perpendicular tumor diameters were measured at once weekly intervals with digital vernier calipers. Assuming tumors to be spherical, volumes were calculated from the formula (π/6)×d3, where d represented the mean diameter.
(§7) Drug: LCF/HCA was dissolved in 20mM sodium acetate pH 5 buffer containing 150 mM sodium chloride, and administered intraperitoneally twice weekly for 4 consecutive weeks at a dose of 0.5 mg per animal. The antibody was provided to each testing site in coded vials for blinded testing according the PPTP's standard operating procedures.
(§8) Median Group Response: Each individual mouse in each treatment group was assigned a response score (see Tables above) and a median score for the treatment group was calculated and then each treatment group was assigned an overall response according to the table below.
(§9) Statistical Methods: Event-free survival (EFS) distributions of each treatment group were compared to the EFS distribution of the respective control group using the exact log rank test. P-values were 2-sided & were not adjusted for multiple comparisons given the exploratory nature of this study. P-values<0.05 were considered to be significant.

The test system of experiment [3] is BT-44 xenograft (Ependymoma). Description: PPTP in vivo xenograft BT-44. Conditions: BT-44 (Ependymoma) xenograft, 0.5 mg per mouse ip twice weekly for four weeks. More on the design: key to EFS activity notation (high, intermediate, indeterminate): high (!); intermediate (#); indeterminate (^). The protocol: as §4, §5, §6, §7, §8, §9
The subject of experiment [4] is ALL-8 xenograft (ALL T-cell). Description: PPTP in vivo leukemia xenograft ALL-8. The note with it: ALL-8 (ALL T-cell) xenograft; 0.5 mg per mouse ip twice weekly for four weeks. The protocol: as §1, §2, §3
For experiment [5], the system named is squamous cell carcinoma cell line SCC 15. Kind of experiment: Cell-Titer Glo proliferation assay, SCC15. Conditions: 0.000256-100 nM antibody, 96 hours. It is filed as cell-based, human. How it is done:
Cell proliferation was assayed using a Cell-Titer Glo assay (Promega Corp.; Madison, Wis.). A cell-titer glo assay generates a “glow” luminescent signal in the presence of ATP from viable cells, which can be detected with a plate reader luminometer or CCD imaging device.
In this assay, squamous cell carcinoma cells, SCC9, SCC25 and SCC15, were trypsinized, counted and resuspended at 25,000 cells/ml in 10% HI-FBS RPMI containing NEAA, L-Glu, MEM Vitamins and PS. […] (2500 cells) were added to each well BD Falcon 96 well black, clear bottom TC treated plate. Cells were allowed to attach and spread overnight at 37° C. Then, 10% RPMI medium was replaced with […] 2% RPMI, containing the LCF/HCA antibody at the appropriate concentration, the following day. The anti-IGF1R antibody concentrations used in each experiment were 100 nM, 20 nM, 5 nM, 0.8 nM, 0.16 nM, 0.032 nM, 0.0064 nM, 0.00128 nM, and 0.000256 nM. All treatments were prepared in 2% RPMI at 20× concentration and serial diluted. Every test point was prepared in triplicate on separate assay plates. As mentioned above, cell proliferation was measured using the CellTiter-Glo Luminescent Cell Viability Assay (Promega) at 96 hours post treatment. Luminescence was detected on a Wallac 420 Plate Reader with stacker.

Experiment [6] relates to SK-NEP-1 xenograft (Ewings). Description: PPTP in vivo xenograft SK-NEP-1. The note with it: SK-NEP-1 (Ewings) xenograft, 0.5 mg per mouse ip twice weekly for four weeks. The protocol: as §4, §5, §6
(§10) Drug: LCF/HCA was dissolved in 20mM sodium acetate pH 5 buffer containing 150 mM sodium chloride, and administered intraperitoneally twice weekly for 4 consecutive weeks at a dose of 0.5 mg per animal. […]
as §3

The subject of experiment [7] is SCC15 human squamous cell carcinoma tumor cells. Description: SCC15 squamous cell carcinoma xenograft in SCID mice. The format is in vivo, mouse. The note with it: 0.1 mg/injection ip two times per week, seven times starting on day 10. The protocol:
Immune-deficient SCID mice (strain SCID) were inoculated with SCC15 human squamous cell carcinoma tumor cells in the right flank, subcutaneously, along with Matrigel (1:1 cells:gel). In these experiments, 5×10^6 cells/mouse in a 1:1 mix with regular matrigel were inoculated. The LCF/HCA anti-IGF1R antibody was inoculated intraperitoneally (ip) (0.1 mg/injection). Mice were dosed with the antibody two times per week, by intraperitoneal injection, seven times starting on day 10 with the last dose on day 31. Tumor size was measured with calipers and the data was entered into the labcat program. Mice were grouped with average size of 100 mm^3. Tumor size and body weight were measured twice weekly.

In experiment [8] the test system is ALL-16 xenograft (ALL T-cell). Kind of experiment: PPTP in vivo leukemia xenograft ALL-16. Conditions: ALL-16 (ALL T-cell) xenograft; 0.5 mg per mouse ip twice weekly for four weeks. How it is done: as §1, §2, §3
For experiment [9], the system named is KT-16 xenograft (Rhabdoid). Description: PPTP in vivo xenograft KT-16. Conditions: KT-16 (Rhabdoid) xenograft, 0.5 mg per mouse ip twice weekly for four weeks. The protocol:
as §4, §5, §6, §10, §3

Where [10] appears, read: 0.5 mg per mouse ip twice weekly for four weeks.

B1: LCF/HCA: fully human anti-IGF1R antibody comprising the mature 19D12/15H12 light chain F (LCF) and mature heavy chain A (HCA) (antibody, V domains shown)
VH: EVQLVQSGGGLVHPGGSLRLSCAASGFTFSSFAMHWVRQAPGKGLEWISVIDTRGATYYADSVKGRFTISRDNAKNSLYLQMNSLRAEDMAVYYCARLGNFYYGMDVWGQGTTVTVSS
VL: EIVLTQVPDFQSVTPKEKVTITCRASQSIGSSLHWYQQKPDQSPKLLIKYASQSLSGVPSRFSGSGSGTDFTLTINSLEAEDAAAYYCHQSSRLPHTFGGGTKVEIKRT
As to B1, the “EFS T/C” value was found to be 1.5 in experiment [1]; 2.2 in [2] (setting [10]); 2.6 in [3]; 1.5 in [4]; 0.9 in experiment [6]; 1 in [8]. For the same molecule, in experiment [9], the “EFS T/C” value is on record as 1.2. Further, the “Median Final RTV” value is listed as >25 in experiment [1]; >4# in experiment [2] (setting [10]); >4# in [3]; >25 in experiment [4]; >4 in [6]; >25 in experiment [8]. The “Median Final RTV” value in experiment [9] was >4. Further, the “EFS activity notation (high, intermediate, indeterminate)” value in [2] (setting [10]) and in experiment [3] was “#” each time. Further, the “Overall Group Response” value in [2] (setting [10]) and in experiment [3] was “PD2 (1 < MS ≦ 3)” in each case. In addition, the “Tumor Volume T/C” value in experiment [2] (day 21, 0.5 mg per mouse ip twice weekly for four weeks) is on record as 0.58; in experiment [3] (day 21), 0.66; in experiment [6] (day 21), 1.08; in [9] (day 21), 0.5. Also, in [5], the “proliferation of squamous cell carcinoma cell line” value is recorded as “inhibited”. In experiment [7], the tumor growth entry is recorded as “less than that observed in mice only receiving a control injection without the antibody”.
